Measured values from paper PMC3789691.

Tested on: T1, LexA2 recombinant (Leptospira interrogans serovar Copenhageni), ORF:e6531adf
T1 sequence: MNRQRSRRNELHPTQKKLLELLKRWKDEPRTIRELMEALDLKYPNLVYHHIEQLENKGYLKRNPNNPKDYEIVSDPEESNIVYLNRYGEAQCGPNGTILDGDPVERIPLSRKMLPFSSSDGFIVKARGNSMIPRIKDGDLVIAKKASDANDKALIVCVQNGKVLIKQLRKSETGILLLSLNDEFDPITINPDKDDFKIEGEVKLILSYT
Test: EMSA
Details: Roche DIG Gel Shift Kit binding buffer (composition and pH not given), poly[d(A-T)], 1.55 fmol probe, 20 min on ice; 5% native gel, 0.5x TBE, 4 C

GTTCATTTCTTCTGGATCGTTGCCTATTCATACTACTAAGTACATGATTAGGAAAATTAACTTAAAAAGCAAGAAAAAAATCAACTCGCATCTTGACATTTAAACTTTGTACAAGTATAATTACAATTAAAGCAATGGGACATATTCCCAAAGGAGACATGAATGTCTAAGAACATTAAAGTTACCAAAGAATCGAATACAGGGCTCAATAAAGAATTCTACGATCCTTCCAGAGGAAAGTC (double strand) [lexA2up]
binding: binds
